# Substitutions are numbered along the chain they refer to.
# Assays:
# [1] = biological target: T1, VraR (unphosphorylated) (Staphylococcus aureus) (UniProt Q7A2Q1); test: DNase I footprinting; conditions: 10 mM Tris pH 7.5, 50 mM KCl, 1 mM DTT, 10 mM MgCl2, 50% glycerol, 20 ng/ul herring sperm DNA; 2 ng amplicon; protein 0-50 uM; temperature not stated
# T1 sequence: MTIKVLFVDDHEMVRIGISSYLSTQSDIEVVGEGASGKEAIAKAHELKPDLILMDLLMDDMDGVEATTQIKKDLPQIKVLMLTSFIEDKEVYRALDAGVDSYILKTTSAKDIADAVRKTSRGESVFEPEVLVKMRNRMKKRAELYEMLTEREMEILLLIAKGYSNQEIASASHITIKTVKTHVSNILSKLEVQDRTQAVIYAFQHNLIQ
# [2] = biological target: T2, VraRM13A (unphosphorylated) M13A (Staphylococcus aureus) (UniProt Q7A2Q1); test: DNase I footprinting; conditions: 10 mM Tris pH 7.5, 50 mM KCl, 1 mM DTT, 10 mM MgCl2, 50% glycerol, 20 ng/ul herring sperm DNA; 2 ng amplicon; protein 0-50 uM; temperature not stated
# T2 sequence: T1 sequence with M13A
sequence,measurement,setting,value
TGAAATGACGCATTGATTGTGTTCTTAATTATTATAAAACAGTTCCGAAACCAATATGAATAGGCTCCGGAACTAAATGATGTTCATACTTTAGTCTTAGTATATGTTGAACTATTCTTCTTCAATCTTTGTCGTTAAAATCGGACCAAGCTTCGT (double strand) [PvraSR (-121 to +26)],binding,[1],binds
same,binding,[2],binds more weakly

# Reference: publication PMC6612188
